Sequences and labels used below:
B1: NZM variant var3 (light chain CDR2 modified), full human IgG4 (antibody, V domains shown)
VH: QVQLVQSGAEVKKPGASVKVSCKASGFNIKDTYIHWVRQAPGQRLEWMGRIDPANGYTKYDPKFQGRVTITADTSASTAYMELSSLRSEDTAVYYCAREGYYGNYGVYAMDYWGQGTLVTVSS
VL: DIQMTQSPSSLSASVGDRVTITCKTSQDINKYMAWYQQTPGKAPRLLIHYTKSNQPGIPSRFSGSGSGRDYTFTISSLQPEDIATYYCLQYDNLWTFGQGTKVEIK
B2: NZM variant var4 (light chain CDR2 modified), full human IgG4 (antibody, V domains shown)
VH: B1 VH
VL: B1 VL with P56S
B3: NZM variant var2 (light chain CDR2 modified), full human IgG4 (antibody, V domains shown)
VH: B1 VH
VL: B1 VL with S53G, P56S
B4: NZM variant var1 (light chain CDR2 modified), full human IgG4 (antibody, V domains shown)
VH: B1 VH
VL: B1 VL with S53G
B5: Natalizumab (NZM), humanized monoclonal IgG4 antibody to α4 integrins (antibody, V domains shown)
VH: B1 VH
VL: B1 VL with K52S, S53A, N54L
B6: NZM-mFc, variant of NZM in which the human Fc was replaced with the murine counterpart (antibody, V domains shown)
VH: B1 VH
VL: B1 VL with K52S, S53A, N54L

Changes are numbered by the printed parent chain.

One assay concerns the target T1, α4 integrin on the surface of T cells (Homo sapiens, UniProt P13612). In words: flow cytometry on cells. A general note: A flow cytometer gives signals particle by particle.
B1: the binding result is recorded as “binds”.

On to B2, for which the binding result is reported as “binds”.

For B3, the binding result is reported as “binds”.

On to B4, for which the binding result is given as “binds”.

Turning to B5, the binding result was “binds”.

The target of another assay is T1, α4 integrin on the surface of T cells. In words: flow cytometry on cells. This is another data set of the same source.
Take B6: the binding result is “binds”.

The record behind these values is paper PMC6795539 (Nature medicine, 2019).
